Legend:
SOJ-6 cells = assay: Cell-cycle distribution by propidium iodide flow cytometry, SOJ-6; format: cell-based, human; details: SOJ-6 after mAb16D10 treatment
Description: Cells were washed twice using cold PBS 1×/BSA 0.2%/Sodium Azide 0.05% buffer. Staining was performed using the different antibodies during 1H at 4° C. into round 96-well plates using 5×10^4 cells per well. Cells were then washed twice before being incubated with secondary reagents. After two washes, cells were re-suspended before acquisition into PBS1X/Formaldehyde 1%. Stainings were acquired on a FACScan (Becton Dickinson, San Jose, Calif.) and results were analysed using FlowJo Software. SOJ-6 cells pre-treated or not with 5 μg/ml aphidicolin (a reversible inhibitor of eukaryotic nuclear DNA replication, which blocks the cell cycle at early S-phase) for 6 h, were then incubated with mAb16D10 or irrelevant IgM used as a negative control. Cells were released from culture plates with a non-enzymatic cell dissociation solution, washed with PBS^+/+, fixed with 70% ethanol at −20° C. and washed with PBS^+/+. The cells were resuspended in a solution of 400 μg/ml propidium iodide in isoflow buffer and were incubated for 30 min at room temperature as already described [Mi-Lian et al., 2004]. Cell-cycle distribution was detected by flow cytometry and analyzed by Mod Fit software (Verity Software House, Inc., Topsham, Me.). The red fluorescence of single events was recorded using excitation and emission at 488 nm and at 610 nm respectively, to measure the DNA index.
We next wished to know whether mAb16D10-induced apoptosis was due, in part, to the arrest of the cell cycle. Cell cycle distribution of the SOJ-6 cells after treatment was assessed by observing DNA profiles following SOJ-6 cells pre-treated not or with aphidicolin, treated not or with mAb16D10. Each experiment was carried out in triplate. We used a specific DNA marker, Propidium Iodide, to determine the different phases of the cell cycle by flow cytometry. […] Indeed, the shift of cells from the G2/M to the G1/S phase and from the G1/S to the apoptosis was also observed following aphidicolin treatment. […]

[1] = test system: E-cadherin, β-catenin in SOJ-6 cells; assay: Immunoblotting and immunofluorescence of E-cadherin/β-catenin complex, SOJ-6; format: cell-based, human
Description: SOJ-6 cells were grown in 6-well culture plates in RPMI 1640 medium with 10% FCS. At subconfluency, the medium was removed and replaced for 24 hours by fresh RPMI medium with 10% inactivated FCS. SOJ-6 cells were then incubated with mAb16D10 or Cisplatin for 24 hours. At the end of incubation, cells were washed three times with ice-cold PBS (without […] and Mg^++) harvested and pelleted by centrifugation. Pellets were washed twice and lysed at 4° C. in 0.5 ml of lysis buffer (10 mM Tris-HCl pH 7.4, 150 mM NaCl, 1% Triton X-100, 1 mM benzamidine and phosphatase inhibitors). After lysis, homogenates were clarified by centrifugation at 10,000 g for 10 min at 4° C. An aliquot was saved for protein determination using the bicinchoninic acid assay (Pierce, Rockford, Ill.). Proteins (50 μg/lane) in reducing SDS buffer were separated onto 10, 12, or 15% polyacrylamide with 0.1% SDS (according to the molecular weight range of proteins to be separated). After electrophoretic migration, proteins were silver stained. Alternatively, proteins were transferred onto nitrocellulose membranes using a Mini Transblot electrophoretic cell (BioRad, Hercule, Oreg.), and transferred proteins were immunodetected by using appropriate primary and secondary antibodies. After washes, membranes were developed with a chemoluminescent substrate according to the manufacturer's instructions (Roche Diagnostics, Switzerland). In each experiment, a control was included by omitting primary antibodies or by using a non-immune serum.
These molecules might confer to these lipid raft domains the role of signalling. Immunoblottings were performed to examine the expression of E-cadherin and of β-catenin by pancreatic tumoral cells.
Several studies have shown that, in the absence of Wnt signalling, the phosphorylation of residues of β-catenin addressed this protein to degradation by the ubiquitin-dependent proteasome pathway (Aberle et al., 1997 EMBO J. 16(13): 3797-804 and Orford et al., 1997 Biol. Chem. 272(40): 24735-8). […] Furthermore, β-catenin may be regulated by GSK-3β, which itself is activated in cells once treated with mAb16D10 (FIG. 11). […] Lastly, we wanted to determine whether the association of E-cadherin, β-catenin, and 16D10 antigen in the rafts microdomains is required for mAb16D10 to induce apoptosis (FIG. 13).

B1: 16D10: IgM monoclonal antibody recognizing FAPP/BSDL; producing cells deposited with the CNCM under the number I-3188 (antibody, listed as Mus musculus, V domains shown)
VH: QVQLQQSDAELVKPGASVKISCKASGYTFTDHAIHWVKQKPEQGLEWIGYISPGNDVIKFNEKFKGKATLTADKSSSTAYMQLNSLTSEDSAVYFCKRSEGGVFDYWGQGTTLTVS
VL: NIMMTQSPSSLAVSAGEKVTMSCKSSQSVLYSSNQKNFLAWYQQKPGQSPKLLIYWASTRESGVPDRFTGSGSGTDFTLTISSVQAEDLAVYYCHQYLSSYTFGGGTKLEIK
apoptotic cells (SOJ-6 cells): 6% | cells in G1/S (SOJ-6 cells): 96% | cells in G2/M phase (SOJ-6 cells): 4% | phosphorylation of β-catenin ([1]; SOJ-6): phosphorylated | expression of β-catenin ([1]; SOJ-6, 25 μg/ml, 24 h): did not induce a significant change in the expression of β-catenin | E-cadherin protein expression ([1]; SOJ-6, 25 μg/ml, 24 h, versus irrelevant IgM): high E-cadherin protein expression | localization of β-catenin ([1]; SOJ-6, fluorescence microscopy, plasma membrane in untreated cells): found in the cytosolic compartment
